In paper PMC5587908:
“And” between values parts separate entries of the source, which are not always exact repeats. Identical values can stand only once.

How the values were obtained:
[1] = biological target: human plasminogen (Plg); assay: ELISA; set-up: dose or concentration left out as unconfirmed; details: FnBPB proteins immobilized on microtiter wells, read off a plot
[2] = biological target: full-length FnBPB on S. aureus FnBPB^(+) cells (S. aureus strain 8325-4); assay: single-molecule force spectroscopy (AFM); Fg tips against living FnBPB^(+) cells; PBS, contact time 100 ms, applied force 250 pN, speed 1,000 nm s^-1
[3] = biological target: full-length FnBPB on S. aureus FnBPB^(+) cells (S. aureus strain 8325-4); assay: single-cell force spectroscopy (AFM); as a5, in the presence of 0.1 mg ml^-1 Fg in the AFM chamber
[4] = biological target: full-length FnBPB on S. aureus FnBPB^(+) cells (S. aureus strain 8325-4); assay: single-molecule force spectroscopy (AFM); as a7, in the presence of 0.1 mg ml^-1 Fg in the AFM chamber
[5] = biological target: full-length FnBPB on S. aureus FnBPB^(+) cells (S. aureus strain 8325-4); assay: single-molecule force spectroscopy (AFM); Plg on the AFM tip (PEG-benzaldehyde linker) against living S. aureus cells trapped in porous membranes; PBS, 20°C, contact time 250 ms, applied force 250 pN, speed 1,000 nm s^-1; without Fg
[6] = biological target: full-length FnBPB on S. aureus FnBPB^(+) cells (S. aureus strain 8325-4); assay: single-cell force spectroscopy (AFM); single living S. aureus cell on a polydopamine-coated colloidal cantilever against Plg coupled to a gold substrate (NHS/EDC); PBS, 20°C, contact time 1 s, applied force 250 pN, speed 1,000 nm s^-1; without Fg
[7] = biological target: FnBPA (194-511), FnBPA_(N2N3) (S. aureus) (UniProt P14738); assay: ELISA; FnBPA_(N2N3) or FnBPB_(N2N3) coated on microtiter wells (200 ng/well, 0.1 M sodium carbonate pH 9.5), increasing concentrations of Plg for 1 h; bound Plg detected with rabbit anti-Plg and HRP goat anti-rabbit IgG; Kd from the Plg saturation kinetics
[8] = biological target: FnBPB (163-480), FnBPB_(N2N3) (S. aureus); assay: as above

**Q.** How did the response ([1]; + Fg (black bar), saturating amounts of Fg, bound Plg detected with rabbit antibodies followed by HRP-con, parent: est. 1.5) turn out when “FnBPB (163-480), FnBPB_(N2N3) (from UniProt A0A0H2XKG3) N312A; F314A” was run?
**A.** The response was 1.5 A490nm.

**Q.** And the response ([1]; - Fg (white bar), bound Plg detected with rabbit antibodies followed by HRP-conjugated goat anti-rabbit IgG, parent: est. 1.6)?
**A.** The response was 1.5 A490nm.

**Q.** “human fibrinogen (Fg) (from UniProt P02671 36-866; P02675 45-491; P02679 27-453) (complex)” was tested. Which adhesion force (single molecule, cell 1) [2] did it give?
**A.** Its adhesion force (single molecule, cell 1) is 1970 pN.

**Q.** And the adhesion force (single molecule, cell 2) [2]?
**A.** Its adhesion force (single molecule, cell 2) is 1690 pN.

**Q.** And the adhesion force (single molecule, cell 3) [2]?
**A.** Its adhesion force (single molecule, cell 3) is 1960 pN.

**Q.** What does the source list for “human plasminogen (Plg) (natural protein)”?
**A.** mean adhesion force (single cell, 3 cells, with 0.1 mg/ml Fg) [3]: 2100 pN; binding force (cell 1, with 0.1 mg/ml Fg) [4]: 898 pN; binding force (cell 2, with 0.1 mg/ml Fg) [4]: 619 pN; binding force (cell 3, with 0.1 mg/ml Fg) [4]: 561 pN; binding probability (cell 1, with 0.1 mg/ml Fg) [4]: 81%; binding probability (cell 2, with 0.1 mg/ml Fg) [4]: 79%; binding probability (cell 3, with 0.1 mg/ml Fg) [4]: 73%; adhesion force (single molecule) [5]: 188 pN; adhesion frequency [5]: 40%; binding force (cell 1) [5]: 175 pN; binding force (cell 2) [5]: 154 pN; binding force (cell 3) [5]: 176 pN; binding probability (cell 1) [5]: 67%; binding probability (cell 2) [5]: 24%; binding probability (cell 3) [5]: 42%; adhesion force (single cell, cell 1) [6]: 556 pN; adhesion force (single cell, cell 2) [6]: 249 pN; adhesion force (single cell, cell 2, a few curves) [6]: 1630 pN; adhesion force (single cell, cell 3) [6]: 1600 pN; maximum adhesion force (single cell, cells 2 and 3) [6]: 1500 pN and 2000 pN; mean adhesion force (single cell, 3 cells) [6]: 775 pN; Kd [7]: 600 nM; Kd [8]: 380 nM
